For assay [1], the target named is T1, MBP-PDZ fusion protein (mammalian (so in the source), UniProt P57105 6-100, limits assumed).
T1 construct: domain: PDZ domain; also called MBP fusion PDZ
T1 sequence (looked up): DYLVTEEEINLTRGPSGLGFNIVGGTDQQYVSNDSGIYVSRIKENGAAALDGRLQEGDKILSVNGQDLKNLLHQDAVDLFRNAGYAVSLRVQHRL
In words: beads-binding assay, MBP-PDZ-coupled resin.
Method: After Nb induction and cell lysis, the cell lysates were run on SDS-PAGE to estimate Nb expression levels. Recombinant Nbs in the cell lysis were diluted in 1x DPBS (pH 7.4) to a final concentration of ˜5 μM (for GST Nbs) and ˜50 nM (for PDZ Nbs). To test the specific interactions of Nbs with antigens, different antigens were coupled to the CNBr resin. Inactivated or MBP-conjugated CNBr resin was used for control. Antigen coupled resins or control resins were incubated with Nb lysates at 4° C. for 30 mins. The resins were then washed three times with a washing buffer (1x DPBS with 150 mM NaCl and 0.05% Tween 20) to remove nonspecific bindings. Specific antigen bound Nbs were then eluted from the resins by the hot LDS buffer containing 20 mM DTT and ran on SDS-PAGE. The intensities of Nbs on the gel were compared between antigen specific signals and control signals to derive the false positive binding.

Assay [2] deals with T2, PDZ domain of mitochondrial outer membrane protein 25 (mammalian (so in the source), UniProt P57105 6-100, limits assumed).
T2 construct: domain: PDZ domain; Wild type PDZ as coated in ELISA and immobilised in SPR; also called wild type PDZ; OMP25 PDZ domain
T2 sequence (looked up): T1 sequence (looked up)
In words: indirect ELISA, wild type PDZ coated.
Method: Indirect ELISA was carried out to evaluate the camelid immune response of an antigen and to quantify the relative affinities of antigen-specific Nbs. An antigen was coated onto a 96-well ELISA plate (R&D system) at an amount of approximately 1-10 ng per well in a coating buffer (15 mM sodium carbonate, 35 mM sodium bicarbonate, pH 9.6) overnight at 4° C. The well surface was then blocked with a blocking buffer (DPBS, 0.05% Tween 20, 5% milk) at room temperature for 2 hours. To test an immune response, the immunized serum was serially 5-fold diluted in the blocking buffer. The diluted sera were incubated with the antigen coated wells at room temperature for 2 hours. […] Three washes with 1x PBST (DPBS, 0.05% Tween 20) were carried out to remove nonspecific absorbance between incubations. […] After the STOP solution (R&D system), the plates were read at multiple wavelengths (450 nm and 550 nm) on a plate reader (Multiskan GO, Thermo Fisher). A false positive Nb binder was defined if any of the following two criteria was met: i) the ELISA signal can only be detected at a concentration of 10 μM and was under detected at 1 μM concentration. ii) At 1 μM concentration, a pronounced signal decrease (by more than 10-fold) was detected compared to the signal at 10 μM, while there were no signals can be detected at lower concentrations. […]

The target in assay [3] is T2, PDZ domain of mitochondrial outer …. In words: SPR, PDZ immobilised.
The target of assay [4] is T3, glutathione S-transferase (UniProt P08515 1-218 = GST).
T3 construct: Expressed in E. coli, purified on GSH resin; also called GST
T3 sequence (P08515 whole entry): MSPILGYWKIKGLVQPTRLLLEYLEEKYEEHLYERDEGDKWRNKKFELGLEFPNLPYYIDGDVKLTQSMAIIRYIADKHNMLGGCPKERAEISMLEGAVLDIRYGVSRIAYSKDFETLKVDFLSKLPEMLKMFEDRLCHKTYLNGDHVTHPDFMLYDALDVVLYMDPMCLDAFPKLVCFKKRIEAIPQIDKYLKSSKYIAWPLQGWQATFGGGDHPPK
The experiment in a line: SPR, GST immobilised (legend of FIG. 3H; differs from Table 1). On the technique in general: Surface plasmon resonance follows binding to a sensor surface in real time, without labels.
Method: (§1) Nb affinity measurement by SPR. Surface plasmon resonance (SPR, Biacore 3000 system, GE Healthcare) was used to measure Nb affinities. Antigen proteins immobilized on the activated CM5 sensor-chip by the following steps. Protein analytes were diluted to 10-30 μg/ml in 10 mM sodium acetate, pH 4.5, and were injected into the SPR system at 5 μl/min for 420 s. The surface of the sensor was then blocked by 1 M ethanolamine-HCl (pH 8.5). For each Nb analyte, a series of dilution (spanning three orders of magnitude) was injected in HBS-EP+ running buffer (GE-Healthcare) containing 2 mM DTT, at a flow rate of 20-30 μl/min for 120-180 s, followed by a dissociation time of 5-20 mins based on dissociation rate. Between each injection, the sensor chip surface was regenerated with the low pH buffer containing 10 mM glycine-HCl (pH 1.5-2.5), or high pH buffer of 20-40 mM NaOH (pH 12-13). The regeneration was performed with a flow rate of 40-50 μl/min for 30 s. The measurements were duplicated and only highly reproducible data was used for analysis. Binding sensorgrams for each Nb were processed and analyzed using BIAevaluation by fitting with 1:1 Langmuir model or 1:1 Langmuir model with mass transfer.

The target of assay [5] is T3, glutathione S-transferase. The experiment in a line: indirect ELISA, GST coated.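 Also: nanobody dilution series starting at 10 µM binding plate-bound antigen, HRP anti-His or anti-T7 tag detection, TMB absorbance at 450 nm, logIC50 from four-parameter logistic fit.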 On the technique in general: An ELISA detects its analyte on a solid surface through an enzyme-linked reagent.
Method: (§2) Indirect ELISA was carried out to evaluate the camelid immune response of an antigen and to quantify the relative affinities of antigen-specific Nbs. An antigen was coated onto a 96-well ELISA plate (R&D system) at an amount of approximately 1-10 ng per well in a coating buffer (15 mM sodium carbonate, 35 mM sodium bicarbonate, pH 9.6) overnight at 4° C. The well surface was then blocked with a blocking buffer (DPBS, 0.05% Tween 20, 5% milk) at room temperature for 2 hours. To test an immune response, the immunized serum was serially 5-fold diluted in the blocking buffer. The diluted sera were incubated with the antigen coated wells at room temperature for 2 hours. HRP-conjugated secondary antibodies against llama Fc (Bethyl) were diluted 1:10,000 in the blocking buffer and incubated with each well for 1 hour at room temperature. […] Nbs of both specific binders for test and scramble negative controls were serially 10-fold diluted from 10 μM to 1 μM in the blocking buffer. HRP-conjugated secondary antibodies against His-tag (Genscript) or T7-tag (Thermo) were diluted 1:5,000 or 1:10,000 in the blocking buffer and incubated for 1 hour at room temperature. Three washes with 1x PBST (DPBS, 0.05% Tween 20) were carried out to remove nonspecific absorbance between incubations. After the final wash, the samples were further incubated under dark with freshly prepared w3,3′,5,5′-Tetramethylbenzidine (TMB) substrate for 10 mins at room temperature to develop the signals. After the STOP solution (R&D system), the plates were read at multiple wavelengths (450 nm and 550 nm) on a plate reader (Multiskan GO, Thermo Fisher). A false positive Nb binder was defined if any of the following two criteria was met: i) the ELISA signal can only be detected at a concentration of 10 μM and was under detected at 1 μM concentration. ii) At 1 μM concentration, a pronounced signal decrease (by more than 10-fold) was detected compared to the signal at 10 μM, while there were no signals can be detected at lower concentrations. The raw data was processed by Prism 7 (GraphPad) to fit into a 4PL curve and to calculate logIC50.
The target in assay [6] is T3, glutathione S-transferase. In words: SPR, GST immobilised.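 Also: nanobody analytes injected as dilution series over three orders of magnitude across antigen on a CM5 chip, kinetics fitted by 1:1 Langmuir model, optionally with mass transfer, duplicate runs.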
Method: as §1
Assay [7] concerns the target T4, human serum albumin (human, UniProt P02768 25-609).
T4 construct: In the mutant screen wild type HSA came from medium of transfected HeLa cells; also called HSA; wild type HSA
In words: indirect ELISA, HSA coated.
Method: as §2

Assay [8] deals with T4, human serum albumin. In words: SPR, HSA immobilised.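 Also: nanobody analytes injected as dilution series across three log units over CM5 chip with amine-coupled antigen, kinetics fitted by 1:1 Langmuir model, optionally with mass transfer.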
Method: as §1
The target in assay [9] is T4, human serum albumin. In words: SPR, HSA immobilised (legend of FIG. 3I; differs from Table 2).
Method: as §1

The term Kd denotes the concentration at which binding is half-saturated. A higher Kd goes with a looser complex. Broadly, the koff is a measure of how fast the partners let go of each other. A lower koff goes with slow dissociation. As usually defined, the kon is a measure of how fast the partners come together.

Substitutions are numbered along the chain they refer to.

T4 sequence (P02768 25-609 limits assumed): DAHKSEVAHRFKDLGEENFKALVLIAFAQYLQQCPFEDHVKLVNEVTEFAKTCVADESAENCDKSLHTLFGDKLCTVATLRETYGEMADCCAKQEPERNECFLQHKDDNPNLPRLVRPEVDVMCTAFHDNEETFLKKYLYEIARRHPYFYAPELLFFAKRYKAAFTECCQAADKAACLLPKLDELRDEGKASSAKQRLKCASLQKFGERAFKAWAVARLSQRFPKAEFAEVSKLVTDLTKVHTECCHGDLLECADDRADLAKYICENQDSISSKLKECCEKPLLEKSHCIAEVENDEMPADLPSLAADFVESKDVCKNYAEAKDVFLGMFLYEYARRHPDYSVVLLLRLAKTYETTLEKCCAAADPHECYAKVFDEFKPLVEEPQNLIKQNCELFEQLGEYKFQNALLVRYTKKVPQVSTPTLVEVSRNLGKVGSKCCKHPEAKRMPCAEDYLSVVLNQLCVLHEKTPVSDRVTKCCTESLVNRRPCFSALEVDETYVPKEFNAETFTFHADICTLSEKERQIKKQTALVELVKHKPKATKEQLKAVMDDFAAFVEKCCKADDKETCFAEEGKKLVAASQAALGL

B1: P4 (VHH)
VHH: HVQLVESGGGLVQAGGSLRLSCAAAGRTSSDYAMGWFRQAPGKEREFVSAINWSGISTYYADSVKGRFTISRDNAKNTVHLQMNSLKPEDTAVYYCAAEKLESLRNWHDPLMYDYWGQGTQVTVSE
Turning to B1, in assay [1], the binding result is “binds”.

B2: NbPDZ P10 (VHH)
VHH: DVQLVESGGGLVQAGGSLRLSCTASGRTFSTYTMAWFRQAPGKEREFVAAITWSGTYYADSVKGRFTISRDNAKNTMYLQMNSLKPEDTAVYICAAVIGSTVDSYSPSDPLEYDYWGQGTQVTVSE
Turning to B2, the “WT ELISA affinity (LogIC50 (oD450nm))” value in [2] worked out at 5.21. Also, in assay [3], the Kd was determined as 0.0044 nM, the koff is 9.03e-06 s⁻¹ and the kon came out at 2.06e+06 M⁻¹ s⁻¹.

B3: G60 (VHH)
VHH: QMGRNSAEVQLVESGGSLRLSCAASGSGFSSSIIAWYRQAPGKQRELVAAIGGPGSTNYADFVEGRFTISRDNAKNTGYLQMNNLNPEDTAVYYCNEVTRSGREYWGQGTQVTVSS
notes: also called G60(C1)
With B3, the Kd in assay [4] came out at 1300 nM. In [5], the “ELISA affinity (LogIC50 (oD450nm))” value is 2.49. In [6], this molecule registered a Kd of 1200 nM, a koff of 0.00586 s⁻¹ and a kon of 4870 M⁻¹ s⁻¹.

B4: H14 (VHH)
VHH: HVQLVESGGGLVQAGGSLRLSCTASGRTFTPYTMGWFRQAPGKEREFVASILWSGNNRDYADSVKDRFAISRDNAKNTAYLQMNSLKPEDTAVYYCAAGDGLGFYRSVNQYDYWGQGTQVTVSS
Turning to B4, in [7], the “ELISA affinity (LogIC50 (oD450nm))” value was determined as 5.96. Further, in assay [8], the Kd was 0.0223 nM, the koff is 5.57e-06 s⁻¹ and the kon is 250000 M⁻¹ s⁻¹. The koff in assay [9] worked out at 5.75e-06 s⁻¹.

B5: P2 (VHH)
VHH: DVQLVESGGGLVQAGGSLRLSCAASGHTFSSYTMGWFHQAPGKEREFVAEISGTGGNTGYADSVKGRFTISRDNAKNTVYLQMNSLKPEDTAVYYCAAVIGSPTDSSDYRSSLDYDYWGQGTQVTVSE
For B5, the binding result in assay [1] is given as “binds”.

B6: P3 (VHH)
VHH: B5 VHH with H27R, S52G
For B6, the binding result in [1] is listed as “binds”.

B7: P6 (VHH)
VHH: B5 VHH with D1H, H27R, S31R, I70M, A92G
For B7, the binding result in assay [1] is “binds”.

B8: P5 (VHH)
VHH: DVQLVESGGGLVQAGDSLRLSCAASGITFRWYTMAWFRQAPGKERDFVATINWSGSDTNYADSVKGRFTISRDNAKNTVTLQMNSLQPEDTAVYYCAGVPGTSLSGETDPRDYDYWGQGTQVTVSE
Regarding B8, the binding result in assay [1] is “binds”.

B9: P15 (VHH)
VHH: QVQLVESGGGLVQAGGSLRLSCVASGRPFSSLDMGWFRQRPGKERDVVATINWTGDSTYYLDSVKGRFTISRDNAKNTVFLQMNSLKPEDTAVYYCAARGGGSSVDSEYDVGEFEYDYWGQGTQVTVSS
With B9, the binding result in assay [1] was “binds”.

For the origin of these results see patent publication US20230176070A1 (published 2023).
